Laboratory results taken from patent publication US20230265217A1 (published 2023).
Residue numbers refer to the chain shown, from its start. “And” between values parts separate entries of the source, which are not always exact repeats. Equal entries are not always repeated.

B1: 7-14 (VHH)
VHH: EVQLVESGGGLVQPGGSLRLSCAASGSTFSINAMGWFRQAPGKEREFVAGISRGGTTNYADSVKGRFTISADNSKNTAYLQMNSLKPEDTAVYYCAADGVPEYSDYASGPVWGQGTLVTVSS
B2: 5A-3 (VHH)
VHH: EVQLVESGGGLVQPGGSLRLSCAASGSIFSIDVMGWFRQAPGKEREFVAGISWSGDSTLYADSVKGRFTISADNSKNTAYLQMNSLKPEDTAVYYCAAFDGYTGSDWGQGTLVTVSS
B3: 7-26 (VHH)
VHH: EVQLVESGGGLVQPGGSLRLSCAASGSTFSINAMGWFRQAPGKEREFVAGITSSGGYTNYADSVKGRFTISADNSKNTAYLQMNSLKPEDTAVYYCAADGVPEYSDYASGPVWGQGTLVTVSS
B4: Variant 3-31 (VHH)
VHH: B3 VHH
B5: 7-37 (VHH)
VHH: B3 VHH with F29L, S53R, G56S, Y57V
B6: 3-31 (VHH)
VHH: B3 VHH
B7: Variant 6A-3 (VHH)
VHH: EVQLVESGGGLVQPGGSLRLSCAASGFTFSPSWMGWFRQAPGKEREFVATINEYGGRNYADSVKGRFTISADNSKNTAYLQMNSLKPEDTAVYYCARVDRDFDYWGQGTLVTVSS

Columns and labels:
178-6 [1] = experiment: competition
[2] = molecular target: Antibody 178-08_His 501.V2 (27079) (SARS-CoV-2, UniProt P0DTC2 14-685); experiment: FACS
[3] = molecular target: Antibody 178-09_His B.1.1.7 (27080) (SARS-CoV-2, UniProt P0DTC2 14-685); experiment: FACS
178-6 [4] = experiment: binding competition
[5] = molecular target: Antibody 178-10_His CA_W152C_L452R_D614G (27081) (SARS-CoV-2, UniProt P0DTC2 14-685); experiment: FACS
[6] = molecular target: SARS-CoV-2 S Trimer B.1.1.529 Omicron; experiment: SPR
[7] = molecular target: SARS-CoV-2 S1 Subunit Monomer B.1.617.2 Delta; experiment: SPR
[8] = molecular target: SARS-CoV-2 S1 Subunit Monomer B.1.1.529 Omicron; experiment: SPR

Binder | IC50 (178-6 [1]) [nM] | IC50 [2] [nM] | IC50 [3] [nM] | IC50 (178-6 [4]) [nM] | IC50 [5] | Kd [6] [nM] | Kd [7] [nM] | Kd [8] [nM]
B1 | 0.682 | 4.42 | 2.52 | – | – | – | – | –
B2 | – | 0.587 | 0.891 | 0.904 | – | – | – | –
B3 | 0.138 | 0.979 | 1.42 | – | 0.56 nM and 0.634 nM | – | – | –
B4 | – | – | – | – | – | 2.1 | 1.1 | –
B5 | 7.51 | 2.1 | 2.82 | – | – | – | – | –
B6 | 1.25 | 325 | – | – | 0.629 nM | – | – | –
B7 | – | – | – | – | – | < 0.04 | – | 3.5
